Assay results as given in patent US20230002480A1.

Experiments:
Assay in all cases: cell-based or functional assay
[1] = molecular target: HIV-1 Env of pseudovirus Du422.1 (HIV-1)
[2] = molecular target: HIV-1 Env of pseudovirus T257-31 (HIV-1)
[3] = molecular target: HIV-1 Env of pseudovirus Q842.d12 (HIV-1)
[4] = molecular target: HIV-1 Env of pseudovirus PVO.4 (HIV-1)
[5] = molecular target: HIV-1 Env of pseudovirus 1394C9G1(Rev-) (HIV-1)
[6] = molecular target: HIV-1 Env of pseudovirus CAP45.2.00.G3 (HIV-1)
[7] = molecular target: HIV-1 Env of pseudovirus BJOX009000.02.4 (HIV-1)
[8] = molecular target: HIV-1 Env of pseudovirus 1056_10_TA11_1826 (HIV-1)
[9] = molecular target: HIV-1 Env of pseudovirus HIV-0013095-2.11 (HIV-1)
[10] = molecular target: HIV-1 Env of pseudovirus Q769.d22 (HIV-1)
[11] = molecular target: HIV-1 Env of pseudovirus HIV-001428-2.42 (HIV-1)
[12] = molecular target: HIV-1 Env of pseudovirus T278-50 (HIV-1)
[13] = molecular target: HIV-1 Env of pseudovirus TRJO4551.58 (HIV-1)
[14] = molecular target: HIV-1 Env of pseudovirus Q23.17 (HIV-1)
[15] = molecular target: HIV-1 Env of pseudovirus 249M B10 (HIV-1)
[16] = molecular target: HIV-1 Env of pseudovirus T250-4 (HIV-1)
[17] = molecular target: HIV-1 Env of pseudovirus 263-8 (HIV-1)
[18] = molecular target: HIV-1 Env of pseudovirus Du156.12 (HIV-1)
[19] = molecular target: HIV-1 Env of pseudovirus 191955_A11 (HIV-1)
[20] = molecular target: HIV-1 Env of pseudovirus 9004SS_A3_4 (HIV-1)
[21] = molecular target: HIV-1 Env of pseudovirus CNE17 (HIV-1)
[22] = molecular target: HIV-1 Env of pseudovirus CNE53 (HIV-1)
[23] = molecular target: HIV-1 Env of pseudovirus X1193_c1 (HIV-1)
[24] = molecular target: HIV-1 Env of pseudovirus 6535.3 (HIV-1)
[25] = molecular target: HIV-1 Env of pseudovirus 928-28 (HIV-1)
[26] = molecular target: HIV-1 Env of pseudovirus Q461.e2 (HIV-1)
[27] = molecular target: HIV-1 Env of pseudovirus Ce2060_G9 (HIV-1)
[28] = molecular target: HIV-1 Env of pseudovirus R2184.c04 (HIV-1)
[29] = molecular target: HIV-1 Env of pseudovirus ZM247v1(Rev-) (HIV-1)
[30] = molecular target: HIV-1 Env of pseudovirus 6240_08_TA5_4622 (HIV-1)
[31] = molecular target: HIV-1 Env of pseudovirus 191084 B7-19 (HIV-1)
[32] = molecular target: HIV-1 Env of pseudovirus BJOX015000.11.5 (HIV-1)

N49P7.1 (antibody)
neutralization IC50 [1]: 3.76 mg/L | neutralization IC80 [1]: 15.7 mg/L | neutralization MPI [1]: 93 | neutralization IC50 [2]: 0.209 mg/L | neutralization IC80 [2]: 1.04 mg/L | neutralization MPI [2]: 100 | neutralization IC50 [3]: 0.028 mg/L | neutralization IC80 [3]: 0.08 mg/L | neutralization MPI [3]: 100 | neutralization IC50 [4]: 0.124 mg/L | neutralization IC80 [4]: 0.421 mg/L | neutralization MPI [4]: 100 | neutralization IC50 [5]: 4.37 mg/L | neutralization IC80 [5]: 30.9 mg/L | neutralization MPI [5]: 88 | neutralization IC50 [6]: 0.086 mg/L | neutralization IC80 [6]: 0.567 mg/L | neutralization MPI [6]: 100 | neutralization IC50 [7]: 0.219 mg/L | neutralization IC80 [7]: 0.756 mg/L | neutralization MPI [7]: 100 | neutralization IC50 [8]: 0.171 mg/L | neutralization IC80 [8]: 0.603 mg/L | neutralization MPI [8]: 100 | neutralization IC50 [9]: 0.105 mg/L | neutralization IC80 [9]: 0.374 mg/L | neutralization MPI [9]: 100 | neutralization IC50 [10]: 0.044 mg/L | neutralization IC80 [10]: 0.163 mg/L | neutralization MPI [10]: 100 | neutralization IC50 [11]: 0.009 mg/L | neutralization IC80 [11]: 0.029 mg/L | neutralization MPI [11]: 100 | neutralization IC50 [12]: 42.4 mg/L | neutralization IC80 [12]: > 50 mg/L | neutralization MPI [12]: 56 | neutralization IC50 [13]: 0.156 mg/L | neutralization IC80 [13]: 0.529 mg/L | neutralization MPI [13]: 100 | neutralization IC50 [14]: 0.077 mg/L | neutralization IC80 [14]: 0.208 mg/L | neutralization MPI [14]: 100 | neutralization IC50 [15]: 0.053 mg/L | neutralization IC80 [15]: 0.225 mg/L | neutralization MPI [15]: 100 | neutralization IC50 [16]: 2.27 mg/L | neutralization IC80 [16]: 24.7 mg/L | neutralization MPI [16]: 89 | neutralization IC50 [17]: 0.104 mg/L | neutralization IC80 [17]: 0.392 mg/L | neutralization MPI [17]: 100 | neutralization IC50 [18]: 0.045 mg/L | neutralization IC80 [18]: 0.131 mg/L | neutralization MPI [18]: 100 | neutralization IC50 [19]: 1.99 mg/L | neutralization IC80 [19]: 10.1 mg/L | neutralization MPI [19]: 98 | neutralization IC50 [20]: 0.221 mg/L | neutralization IC80 [20]: 0.841 mg/L | neutralization MPI [20]: 100 | neutralization IC50 [21]: 0.254 mg/L | neutralization IC80 [21]: 0.86 mg/L | neutralization MPI [21]: 100 | neutralization IC50 [22]: 0.066 mg/L | neutralization IC80 [22]: 0.228 mg/L | neutralization MPI [22]: 100 | neutralization IC50 [23]: 0.035 mg/L | neutralization IC80 [23]: 0.144 mg/L | neutralization MPI [23]: 100 | neutralization IC50 [24]: 0.224 mg/L | neutralization IC80 [24]: 0.715 mg/L | neutralization MPI [24]: 100 | neutralization IC50 [25]: 0.23 mg/L | neutralization IC80 [25]: 0.775 mg/L | neutralization MPI [25]: 100 | neutralization IC50 [26]: 0.329 mg/L | neutralization IC80 [26]: 1.14 mg/L | neutralization MPI [26]: 100 | neutralization IC50 [27]: 0.473 mg/L | neutralization IC80 [27]: 2.41 mg/L | neutralization MPI [27]: 100 | neutralization IC50 [28]: 0.018 mg/L | neutralization IC80 [28]: 0.04 mg/L | neutralization MPI [28]: 100 | neutralization IC50 [29]: 0.038 mg/L | neutralization IC80 [29]: 0.176 mg/L | neutralization MPI [29]: 100 | neutralization IC50 [30]: 0.509 mg/L | neutralization IC80 [30]: 1.95 mg/L | neutralization MPI [30]: 100 | neutralization IC50 [31]: 0.069 mg/L | neutralization IC80 [31]: 0.2 mg/L | neutralization MPI [31]: 100 | neutralization IC50 [32]: 0.111 mg/L | neutralization IC80 [32]: 0.487 mg/L | neutralization MPI [32]: 100
